Legend:
[1] = molecular target: T1, recombinant cMet/HGFR with c-terminal His-tag, Cy5-labeled (UniProt P08581 25-932, limits assumed, Cy5 label (reacted with Cy5 Mono NHS Ester; sites not stated)); test: competitive TR-FRET (Eu-amivantamab/Cy5-c-MET), EC50 ratio vs Reference Material; Ex. 2 Formulation 3 (acetate), T0, 5 C table
T1 construct: Commercial protein; also called Cy5-c-MET; Cy5-labeled c-MET antigen; not shown: C-terminal His-tag
Description: (§1) In this procedure, varying concentrations of unlabeled bispecific EGFR-cMet antibody sample compete with donor fluorophore (Europium (Eu) chelate) labeled bispecific EGFR-cMet antibody for binding to an acceptor fluorophore (Cy5)-labeled c-MET antigen. Excitation of the donor fluorophore results in a transfer of energy to the bound acceptor fluorophore (FRET process). The resultant FRET is detected by emission of light at 665 nm using a microplate reader capable of measuring time-resolved fluorescence. Sample dose response curves are compared to the Reference Material (RM).
(§2) c-MET Binding Materials and Methods. Certified commercial cMet, a recombinant cMet/HGFR with c-terminal His-tag is reacted with certified commercial Cy5 Mono NHS Ester to produce Cy5-labeled c-MET. Validated bispecific EGFR-cMet antibody is reacted with certified commercial Europium (Eu) chelate to produce Eu labeled bispecific EGFR-cMet antibody. […] Fluorescence is then measured by spectrophotometry at 665 nm, plotted against antibody concentration and analyzed by a four-parameter logistic model. The antibody concentration required to obtain half of the maximum fluorescence response (EC50) is determined for RM, assay control and samples. The potencies of assay control and samples are calculated based on the ratio of the sample (or control) and RM EC50 values and reported as a percentage activity relative to the RM.

[2] = molecular target: T2, recombinant human EGFR/ErbB1/HER1 with C-terminal His tag, Cy5-labeled (human, UniProt P00533 25-645, Cy5 label (reacted with Cy5 Mono NHS Ester; sites not stated)); test: competitive TR-FRET (Eu-amivantamab/Cy5-EGFR), EC50 ratio vs Reference Material; Ex. 12 drug product with rHuPH20, 12 months at 5 C
T2 construct: Commercial protein; also called Cy5-EGFR; Cy5-labeled EGFR antigen; not shown: C-terminal His tag
Description: as §1, with “EGFR” for “c-MET”, “RM.” for “Reference Material (RM).”
as §2, with “EGFR” for “c-MET”, “EGFR,” for “cMet,”, “human EGFR/ErbB1/HER1” for “cMet/HGFR”, “C-terminal His tag” for “c-terminal His-tag”, “EGFR.” for “c-MET.”, “Eu-labeled” for “Eu labeled”

[3] = molecular target: T2, recombinant human EGFR/ErbB1/HER1 with …; test: competitive TR-FRET (Eu-amivantamab/Cy5-EGFR), EC50 ratio vs Reference Material; Ex. 2 Formulation 1 (10 mM histidine), T0, 25 C table
Description: as §1, with “EGFR” for “c-MET”, “RM.” for “Reference Material (RM).”
as §2, with “EGFR” for “c-MET”, “EGFR,” for “cMet,”, “human EGFR/ErbB1/HER1” for “cMet/HGFR”, “C-terminal His tag” for “c-terminal His-tag”, “EGFR.” for “c-MET.”, “Eu-labeled” for “Eu labeled”

[4] = molecular target: T2, recombinant human EGFR/ErbB1/HER1 with …; test: competitive TR-FRET (Eu-amivantamab/Cy5-EGFR), EC50 ratio vs Reference Material; Ex. 2 Formulation 2 (50 mM histidine), 1 month at 40 C
Description: as §1, with “EGFR” for “c-MET”, “RM.” for “Reference Material (RM).”
as §2, with “EGFR” for “c-MET”, “EGFR,” for “cMet,”, “human EGFR/ErbB1/HER1” for “cMet/HGFR”, “C-terminal His tag” for “c-terminal His-tag”, “EGFR.” for “c-MET.”, “Eu-labeled” for “Eu labeled”

[5] = molecular target: T1, recombinant cMet/HGFR with c-terminal …; test: competitive TR-FRET (Eu-amivantamab/Cy5-c-MET), EC50 ratio vs Reference Material; Ex. 2 Formulation 1 (10 mM histidine), T0, 40 C table
Description: as §1, §2

[6] = molecular target: T2, recombinant human EGFR/ErbB1/HER1 with …; test: competitive TR-FRET (Eu-amivantamab/Cy5-EGFR), EC50 ratio vs Reference Material; Ex. 3 acetate formulation, 6 months at 25 C, untreated control
Description: as §1, with “EGFR” for “c-MET”, “RM.” for “Reference Material (RM).”
as §2, with “EGFR” for “c-MET”, “EGFR,” for “cMet,”, “human EGFR/ErbB1/HER1” for “cMet/HGFR”, “C-terminal His tag” for “c-terminal His-tag”, “EGFR.” for “c-MET.”, “Eu-labeled” for “Eu labeled”

[7] = molecular target: T1, recombinant cMet/HGFR with c-terminal …; test: competitive TR-FRET (Eu-amivantamab/Cy5-c-MET), EC50 ratio vs Reference Material; Ex. 3 acetate formulation, 6 months at 25 C, untreated control
Description: as §1, §2

[8] = molecular target: T1, recombinant cMet/HGFR with c-terminal …; test: competitive TR-FRET (Eu-amivantamab/Cy5-c-MET), EC50 ratio vs Reference Material; Ex. 3 acetate formulation, 6 months at 25 C then shaking up to 72 h
Description: as §1, §2

cMET Binding % activity relative to RM [1]: 94% | EGFR Binding activity relative to Reference Material (%) [2]: 94% | EGFR Binding % activity relative to RM [3]: 103% | EGFR Binding % activity relative to RM [4]: 68% | cMET Binding % activity relative to RM [5]: 87% | EGFR Binding % activity relative to RM [6]: 83% | cMET Binding % activity relative to RM [7]: 99% | cMET Binding % activity relative to RM [8]: 97%
B1: amivantamab (bispecific antibody, human IgG1, kappa)
heavy 1: not shown
light 1: not shown
heavy 2: not shown
light 2: DIQMTQSPSSVSASVGDRVTITCRASQGISNWLAWFQHKPGKAPKLLIYAASSLLSGVPSRFSGSGSGTDFTLTISSLQPEDFATYYCQQANSFPITFGQGTRLEIKRTVAAPSVFIFPPSDEQLKSGTASVVCLLNNFYPREAKVQWKVDNALQSGNSQESVTEQDSKDSTYSLSSTLTLSKADYEKHKVYACEVTHQGLSSPVTKSFNRGEC
notes: The samples tested were high concentration (160 mg/mL) formulations, fresh or stored or stressed; also called JNJ-61186372; bispecific EGFR-cMet antibody

From patent US20240034813A1 (Janssen / Centocor, published 2024)
